Data on three molecules can be found in paper PMC7414021, “Dodecin as carrier protein for immunizations and bioengineering applications” (Scientific Reports, 2020).

One data set addresses T1, mtDod(WT) (Mycobacterium tuberculosis, UniProt I6XY36).
T1 construct: gene Rv1498A

For data set [1], the target named is mtDod-mmACP (Mycobacterium tuberculosis | Mus musculus). Briefly: SDS-PAGE (dodecamer stable in SDS).
For data set [2] the target is unchanged. Briefly: SEC. Background: Size exclusion chromatography separates by hydrodynamic size, large species first.
Data set [3] deals with the molecule itself. Put plainly: SDS-PAGE (dodecamer stable in SDS).

For the molecule `Cc1cc2nc3c(=O)[nH]c(=O)nc-3n(C[C@H](O)[C@H](O)[C@H](O)COP(=O)(O)O)c2cc1C` [FMN], on mtDod(WT), the “thermocyclic fluorescence assay (quenching of FMN fluorescence on binding to the)” value is “fluorescence quenching that is observed when flavins bind to dodecin”.
The term stoichiometry N denotes the number of molecules, sites or subunits per partner or assembly. On to mtDod-mmACP, for which the stoichiometry N in data set [1] and in data set [2] was 12 throughout.

B1: Mycobacterium tuberculosis dodecin wild type (natural protein)
chain: MSNHTYRVIEIVGTSPDGVDAAIQGGLARAAQTMRALDWFEVQSIRGHLVDGAVAHFQVTMKVGFRLEDS
notes: also called mtDod(WT); mtDod; copies: 12
As to B1, the “stoichiometry N” value in data set [3] worked out at 12.
